Measured values as given in doi:10.1101/2022.11.07.515236 (bioRxiv, 2022).

Columns and labels:
[1] = molecular target: T1, Fc chimera of recombinant human type II BMP receptor BMPRII (human, UniProt Q13873); assay: BLI
T1 sequence: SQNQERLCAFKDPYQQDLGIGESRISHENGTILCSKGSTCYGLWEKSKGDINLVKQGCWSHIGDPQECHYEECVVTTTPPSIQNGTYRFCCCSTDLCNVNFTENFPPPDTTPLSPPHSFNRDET

[2] = molecular target: T2, recombinant human ACTRIIA-Fc (human, UniProt P27037); assay: BLI
[3] = molecular target: T1, Fc chimera of recombinant human type II …; assay: SPR
[4] = molecular target: T2, recombinant human ACTRIIA-Fc; assay: SPR

T2 sequence (P27037 20-135): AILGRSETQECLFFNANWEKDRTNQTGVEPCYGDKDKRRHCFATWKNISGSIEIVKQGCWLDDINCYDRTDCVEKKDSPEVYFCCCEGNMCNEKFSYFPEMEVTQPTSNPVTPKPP

Row | Binder | binding result [1] | binding result [2] | binding result [3] | binding result [4]
1 | recombinant mouse GDF3 (ligand) AAISVPKGFCRNFCHRHQLFINFQDLGWHKWVIAPKGFMANYCHGECPFSMTTYLNSSNYAFMQALMHMADPKVPKAVCVPTKLSPISMLYQDSDKNVILRHYEDMVVDECGCG | binds | binds |  | 
2 | recombinant human GDF3 (ligand) AAIPVPKLSCKNLCHRHQLFINFRDLGWHKWIIAPKGFMANYCHGECPFSLTISLNSSNYAFMQALMHAVDPEIPQAVCIPTKLSPISMLYQDNNDNVILRHYEDMVVDECGCG |  |  | binds | binds
